# Source: publication PMC10998907 (2024)
# T1: NiV-RBP global head domain, His-tagged (Nipah virus, UniProt Q9IH62, biotinylated for BLI only (EZ-link Sulfo-NHS-LC-Biotin))
# T1 chain: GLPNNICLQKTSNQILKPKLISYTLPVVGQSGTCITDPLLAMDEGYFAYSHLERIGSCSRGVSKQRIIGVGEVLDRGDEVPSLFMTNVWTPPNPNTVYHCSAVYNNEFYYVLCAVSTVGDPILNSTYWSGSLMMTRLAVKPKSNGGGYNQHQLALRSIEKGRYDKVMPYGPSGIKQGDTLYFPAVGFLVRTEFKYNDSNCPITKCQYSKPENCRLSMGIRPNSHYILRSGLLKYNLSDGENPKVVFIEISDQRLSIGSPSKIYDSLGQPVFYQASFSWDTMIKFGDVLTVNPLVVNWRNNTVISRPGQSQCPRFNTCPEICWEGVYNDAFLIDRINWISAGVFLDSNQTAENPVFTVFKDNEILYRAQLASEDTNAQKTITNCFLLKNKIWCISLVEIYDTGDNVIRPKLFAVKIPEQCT
# Key:
# Assay in all cases: BLI
# [1] = target: T2, HeV-RBP global head domain, His-tagged (Hendra virus, UniProt O89343 183-602, biotinylated for BLI only (EZ-link Sulfo-NHS-LC-Biotin))
# [2] = target: T1, NiV-RBP global head domain, His-tagged
# [3] = target: T2, HeV-RBP global head domain, His-tagged; remark: listed apart in the source
# [4] = target: T1, NiV-RBP global head domain, His-tagged
# T2 sequence (O89343 183-602): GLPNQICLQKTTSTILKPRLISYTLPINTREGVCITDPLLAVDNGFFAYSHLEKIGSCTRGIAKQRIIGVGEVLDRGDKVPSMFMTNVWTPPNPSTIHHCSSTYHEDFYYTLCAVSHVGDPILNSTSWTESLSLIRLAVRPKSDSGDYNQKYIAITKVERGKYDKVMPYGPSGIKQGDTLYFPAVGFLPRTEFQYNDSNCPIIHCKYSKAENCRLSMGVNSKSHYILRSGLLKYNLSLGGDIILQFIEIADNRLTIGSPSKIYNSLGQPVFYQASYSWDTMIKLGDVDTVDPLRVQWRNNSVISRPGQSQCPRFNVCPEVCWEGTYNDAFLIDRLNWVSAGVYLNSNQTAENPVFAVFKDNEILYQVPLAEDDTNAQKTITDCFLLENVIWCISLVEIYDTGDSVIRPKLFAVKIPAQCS
binder,measurement,setting,value
"41-6 Fab fragment (Fab, V domains shown) VH: EVQLVQSGGGLVQPGGSLRLSCAASGFTVSSNYMSWVRQAPGKGLEWVSAISGSGGSTYYADSVKGRFTISRDNSKNTLYLQMNSLRAEDTAVYYCARDREDIVVVPAPRGYYYYYYMDVWGQGTTVTVSS VL: QSVVTQPPSVSAAPGQKVTISCSGSSSNIGTNHLSWYQQVPGTAPKLLIYDNNKRPSGIPDRFSGSKSGTSASLAISGLQSEDEADYYCATWDDSLHAWVFGGGTKLTVL",Kd,[1],5.4 nM
same,Kd,[2],3.6 nM
same,koff,[3],0.00018 s⁻¹
same,koff,[4],0.0002 s⁻¹
